{"source": "patent US20160002355A1", "about": "(Genentech, published 2016)", "binders": {"B1": {"name": "murine mAb 1.9E1.1 (antibody, IgG1, V domains shown)", "VH": "QVQLQQSGAELVMPGASVKMSCKASGYTFTDYWMYWVNQRPGQGLEWIGAIDTSDSYTTYNQNFKGKATLTVDESSSTAYMQLNSLTSEDSAVYYCARSGFPLFYYPMDYWGQGTSVTVSS", "VL": "QAVVTQESALTTSPGETVTLTCRSSTGAVTTSNYANWVQEKPDHLFTGLIGGTVNRAPGVPARFSGSLIGDKAALTITGAQTEDEAVYFCALWYSNHLVFGGGTKLTVL", "notes": "Used biotin-conjugated in the clinical PK ELISA and the LC-MS/MS capture; also called anti-gH idiotypic antibody; anti-gH anti-ID mAb"}}, "key": {"[1]": {"target": "T1, anti-gH antibody (anti-HCMV antibody)", "T1 construct": "Anti-HCMV monoclonal antibody with a human IgG Fc (detected with anti-human IgG Fc)", "T1 sequence (VH, as listed by the source, chain 1 of 2)": "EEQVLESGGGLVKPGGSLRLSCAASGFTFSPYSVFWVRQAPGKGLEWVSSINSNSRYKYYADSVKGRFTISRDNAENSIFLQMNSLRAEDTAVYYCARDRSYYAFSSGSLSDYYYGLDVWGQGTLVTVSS", "T1 sequence (VL, as listed by the source, chain 2 of 2)": "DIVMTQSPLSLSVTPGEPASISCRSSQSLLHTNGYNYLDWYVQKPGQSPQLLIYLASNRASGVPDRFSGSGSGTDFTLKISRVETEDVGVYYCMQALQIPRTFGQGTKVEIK", "assay": "Biacore"}, "[2]": {"target": "T1, anti-gH antibody (anti-HCMV antibody)", "assay": "preliminary anti-HCMV human PK ELISA, anti-ID coat 1 ug/mL, anti-gH in 1% NHS, HRP-sheep anti-huIgG", "procedure": "The assay was carried out as follows: microtiter ELISA plates were coated with anti-idiotypic monoclonal antibodies at 1 μg/mL in PBS overnight. Anti-CI and anti-gH were diluted in 1% NHS and added to the wells, being subsequently detected with 50 ng/mL (in-well concentration) of HRP-Sheep anti-huIgG."}}}
{"binder": "B1", "values": [{"measurement": "Kd", "setting": "[1]", "result": 0.1, "unit": "nM"}, {"measurement": "fold of OD in the presence of anti-gH over OD in the absence of anti-gH", "setting": "[2]", "result": "> 2", "unit": "fold"}]}
